Patent US20140105889A1 (published 2014)
Read-outs that look alike come from different tables or passages of the source. One block for each binder: values may come before it.

Columns and labels:
mouse FcγRIV = molecular target: T1, mouse FcγRIV (mouse); experiment: SPR (Biacore), antibody captured on Protein L, mouse FcγR as analyte, pH 7.4, 25 C
T1 construct: Bought soluble receptor; also called mFcgRIV; mFcgR IV

human FcγRIIIa(F) = molecular target: T2, human FcγRIIIa(F) (human, UniProt P08637 17-208, limits assumed); experiment: SPR (Biacore), antibody captured on Protein L, human FcγR as analyte, pH 7.4, 25 C
T2 construct: also called hFcgRIIIa(F); hFcgRIIIa
T2 sequence (P08637 other isoform, or with tags, fused parts or gaps limits assumed): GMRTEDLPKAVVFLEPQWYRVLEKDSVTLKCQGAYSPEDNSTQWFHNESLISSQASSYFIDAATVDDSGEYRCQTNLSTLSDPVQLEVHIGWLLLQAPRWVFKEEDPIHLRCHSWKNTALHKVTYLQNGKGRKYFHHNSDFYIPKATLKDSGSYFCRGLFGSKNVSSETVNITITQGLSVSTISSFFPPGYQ

human FcRn [1] = molecular target: T3, human FcRn (human); experiment: SPR (Biacore), pH 7.0, 25 C; antibody captured on Protein L, human FcRn injected
T3 construct: Soluble human FcRn complexed with beta2-microglobulin; also called hFcRn; soluble human FcRn complexed with β2-microglobulin

[2] = molecular target: T4, human FcRn (soluble human FcRn complexed with β2-microglobulin) (human, UniProt P61769 21-119); experiment: Biacore SPR, pH 7.0, 25 C; antibody captured by Protein L, human FcRn as analyte
T4 construct: also called hFcRn

[3] = molecular target: T4, human FcRn (soluble human FcRn …); experiment: as above; remark: listed apart in the source
human FcRn [4] = molecular target: T5, human FcRn (human); experiment: SPR (Biacore), pH 7.0, 25 C, antibody captured by Protein L, human FcRn as analyte
T5 construct: also called hFcRn; soluble human FcRn complexed with β2-microglobulin

mouse FcγRI = molecular target: T6, mouse FcγRI (mouse, UniProt P26151 25-297); experiment: SPR (Biacore), protein L capture, pH 7.4, 25 C
T6 construct: Bought; also called mFcgRI
T6 sequence (looked up): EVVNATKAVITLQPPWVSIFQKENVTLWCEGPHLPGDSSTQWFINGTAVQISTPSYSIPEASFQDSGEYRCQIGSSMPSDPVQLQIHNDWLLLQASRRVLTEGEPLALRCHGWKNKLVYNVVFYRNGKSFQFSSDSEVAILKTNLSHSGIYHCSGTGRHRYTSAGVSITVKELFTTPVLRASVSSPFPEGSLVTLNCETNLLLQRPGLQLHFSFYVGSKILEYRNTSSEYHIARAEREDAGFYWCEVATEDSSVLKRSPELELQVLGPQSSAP

mouse FcγRIIb = molecular target: T7, mouse FcγRIIb (mouse, UniProt P08101 40-217, limits assumed); experiment: SPR (Biacore), protein L capture, pH 7.4, 25 C
T7 construct: Bought; also called mFcgRIIb
T7 sequence (looked up): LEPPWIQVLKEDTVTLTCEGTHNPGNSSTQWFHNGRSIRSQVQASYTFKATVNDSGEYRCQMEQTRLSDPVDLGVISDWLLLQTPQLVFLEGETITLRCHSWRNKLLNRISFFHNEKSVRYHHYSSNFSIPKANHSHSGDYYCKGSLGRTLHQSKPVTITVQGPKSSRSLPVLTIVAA

mouse FcγRIII = molecular target: T8, mouse FcγRIII (mouse, UniProt P08508 31-215); experiment: SPR (Biacore), protein L capture, pH 7.4, 25 C
T8 construct: Bought; also called mFcgRIII
T8 sequence (looked up): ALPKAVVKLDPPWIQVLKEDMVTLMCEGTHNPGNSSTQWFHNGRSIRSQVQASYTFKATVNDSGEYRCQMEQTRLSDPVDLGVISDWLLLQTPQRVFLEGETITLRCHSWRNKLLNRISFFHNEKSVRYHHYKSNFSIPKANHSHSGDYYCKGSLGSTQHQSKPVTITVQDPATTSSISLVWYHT

human FcγRIIb = molecular target: T9, human FcγRIIb (human, UniProt P31994 43-217, limits assumed); experiment: SPR (Biacore), antibody captured, FcγR as analyte
T9 construct: also called FcgRIIb; FcγIIB
T9 sequence: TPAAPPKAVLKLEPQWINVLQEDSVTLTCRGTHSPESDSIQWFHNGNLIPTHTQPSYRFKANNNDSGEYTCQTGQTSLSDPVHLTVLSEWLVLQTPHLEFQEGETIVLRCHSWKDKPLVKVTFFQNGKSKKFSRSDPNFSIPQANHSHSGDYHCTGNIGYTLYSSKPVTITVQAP

T1 sequence (A0A0B4J1G0 21-203): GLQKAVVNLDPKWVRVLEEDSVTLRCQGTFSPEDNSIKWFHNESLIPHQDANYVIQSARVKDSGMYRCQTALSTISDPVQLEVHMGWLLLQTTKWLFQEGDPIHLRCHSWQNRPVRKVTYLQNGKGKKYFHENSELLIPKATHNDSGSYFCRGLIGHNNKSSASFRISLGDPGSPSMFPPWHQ

- BINDING AMOUNT (RU) (mouse FcγRIV): 242 RU
- BINDING AMOUNT (RU) (human FcγRIIIa(F)): 147 RU
B1: VH3/L(WT)-IgG1-F21 (antibody)
heavy: QVQLQESGPGLVKPSETLSLTCAVSGHSISHDHAWSWVRQPPGEGLEWIGFISYSGITNYNPSLQGRVTISRDNSKNTLYLQMNSLRAEDTAVYYCARSLARTTAMDYWGEGTLVTVSSASTKGPSVFPLAPSSKSTSGGTAALGCLVKDYFPEPVTVSWNSGALTSGVHTFPAVLQSSGLYSLSSVVTVPSSSLGTQTYICNVNHKPSNTKVDKKVEPKSCDKTHTCPPCPAPELLGGPSVFLFPPKPKDTLYISRTPEVTCVVVDVSHEDPEVKFNWYVDGVEVHNAKTKPREEQYNSTYRVVSVLTPLHQDWLNGKEYKCKVSNKALPAPIEKTISKAKGQPREPQVYTLPPSRDELTKNQVSLTCLVKGFYPSDIAVEWESNGQPENNYKTTPPVLDSDGSFFLYSKLTVDKSRWQQGNVFSCSVMHEALHYHYTQKSLSLSP
light: not shown
notes: copies: 2 + 2

- Kd (human FcRn [1]): 270 nM
B2: IgG1-F722 (antibody)
heavy: QVQLQESGPGLVKPSETLSLTCAVSGHSISHDHAWSWVRQPPGEGLEWIGFISYSGITNYNPSLQGRVTISRDNSKNTLYLQMNSLRAEDTAVYYCARSLARTTAMDYWGEGTLVTVSSASTKGPSVFPLAPSSKSTSGGTAALGCLVKDYFPEPVTVSWNSGALTSGVHTFPAVLQSSGLYSLSSVVTVPSSSLGTQTYICNVNHKPSNTKVDKKVEPKSCDKTHTCPPCPAPELLGGDSVFLFPPKPKDTLYISRTPEVTCVVVDVSHEDPEVKFNWYVDGVEVHNAKTKPREEQYNSTYRVVSVLTVLHQDWLNGKEYKCKVSNKGLPAPIEKTISKAKGQPREPQVYTLPPSRDELTKNQVSLTCLVKGFYPSDIAVEWESNGQPENNYKTTPPVLDSDGSFFLYSKLTVDKSRWQQGNVFSCSVMHEALHYHYTQKSLSLSP
light: not shown
notes: Substitutions by EU numbering; copies: 2 + 2

- binding result (mouse FcγRI): no binding
- binding result (mouse FcγRIIb): no binding
- binding result (mouse FcγRIII): no binding
B7: mPM1-mIgG1-mF40 (antibody)
heavy: DVQLQESGPVLVKPSQSLSLTCTVTGYSITSDHAWSWIRQFPGNKLEWMGYISYSGITTYNPSLKSRISITRDTSKNQFFLQLNSVTTGDTSTYYCARSLARTTAMDYWGQGTSVTVSSAKTTPPSVYPLAPGSAAQTNSMVTLGCLVKGYFPEPVTVTWNSGSLSSGVHTFPAVLQSDLYTLSSSVTVPSSTWPSETVTCNVAHPASSTKVDKKIVPRDCGCKPCICTVKEVSKVFIFPPKPKDVLYITLEPKVTCVVVDISKDDPEVQFSWFVDDVEVHTAQTQPREEQFNSTFRSVSELPIMHQDWLNGKEFKCRVNSAAFPAPIEKTISKTKGRPKAPQVYTIPPPKEQMAKDKVSLTCMITDFFPEDITVEWQWNGQPAENYKNTQPIMDTDGSYFVYSKLNVQKSNWEAGNTFTCSVLHEGLHWHHTEKSLSHSPGK
light: DIQMTQTTSSLSASLGDRVTISCRASQDISSYLNWYQQKPDGTIKLLIYYTSRLHSGVPSRFSGSGSGTDYSLTINNLEQEDIATYFCQQGNTLPYTFGGGTKLEIKRADAAPTVSIFPPSSEQLTSGGASVVCFLNNFYPKDINVKWKIDGSERQNGVLNSWTDQDSKDSTYSMSSTLTLTKDEYERHNSYTCEATHKTSTSPIVKSFNRNEC
notes: copies: 2 + 2

More lines, now with the values behind:

B3: IgG1-F207 (antibody, name in EU numbering)
heavy: QVQLQESGPGLVKPSETLSLTCAVSGHSISHDHAWSWVRQPPGEGLEWIGFISYSGITNYNPSLQGRVTISRDNSKNTLYLQMNSLRAEDTAVYYCARSLARTTAMDYWGEGTLVTVSSASTKGPSVFPLAPSSKSTSGGTAALGCLVKDYFPEPVTVSWNSGALTSGVHTFPAVLQSSGLYSLSSVVTVPSSSLGTQTYICNVNHKPSNTKVDKKVEPKSCDKTHTCPPCPAPELLGGPSVFLFPPKPKDTLYISRTPEVTCVVVDVSHEDPEVKFNWYVDGVEVHNAKTKPREEQYNSTYRVVSVLKVLHQDWLNGKEYKCKVSNKALPAPIEKTISKAKGQPREPQVYTLPPSRDELTKNQVSLTCLVKGFYPSDIAVEWESNGQPENNYKTTPPVLDSDGSFFLYSKLTVDKSRWQQGNVFSCSVMHEALHYHYTQKSLSLSP
light: not shown
notes: VH3-IgG1 Fc variant; EU numbering
- Kd [2]: 940 nM

B4: IgG1-F79 (antibody, name in EU numbering)
heavy: QVQLQESGPGLVKPSETLSLTCAVSGHSISHDHAWSWVRQPPGEGLEWIGFISYSGITNYNPSLQGRVTISRDNSKNTLYLQMNSLRAEDTAVYYCARSLARTTAMDYWGEGTLVTVSSASTKGPSVFPLAPSSKSTSGGTAALGCLVKDYFPEPVTVSWNSGALTSGVHTFPAVLQSSGLYSLSSVVTVPSSSLGTQTYICNVNHKPSNTKVDKKVEPKSCDKTHTCPPCPAPELLGGPSVFLFPPKPKDTLMITREPEVTCVVVDVSHEDPEVKFNWYVDGVEVHNAKTKPREEQYNSTYRVVSVLTVLHQDWLNGKEYKCKVSNKALPAPIEKTISKAKGQPREPQVYTLPPSRDELTKNQVSLTCLVKGFYPSDIAVEWESNGQPENNYKTTPPVLDSDGSFFLYSKLTVDKSRWQQGNVFSCSVMHEALHAHYTQKSLSLSP
light: not shown
notes: as for B3
- Kd [3]: 5900 nM

B5: F1113 (antibody, name in EU numbering)
heavy: QVQLQESGPGLVKPSETLSLTCAVSGHSISHDHAWSWVRQPPGEGLEWIGFISYSGITNYNPSLQGRVTISRDNSKNTLYLQMNSLRAEDTAVYYCARSLARTTAMDYWGEGTLVTVSSASTKGPSVFPLAPSSKSTSGGTAALGCLVKDYFPEPVTVSWNSGALTSGVHTFPAVLQSSGLYSLSSVVTVPSSSLGTQTYICNVNHKPSNTKVDKKVEPKSCDKTHTCPPCPAPELLGGPSVFLFPPKPKDTLYISRTPEVTCVVVDVSHEDPEVKFNWYVDGVEVHNAKTKPREEQYNSTYRVVSVLTVLHQDWLNGKEYKCKVSNKALPAPIEKTISKAKGQPREPQVYTLPPSRDELTKNQVSLTCLVKGFYPSDIAVEWESNGQPENNYKTTPPVLDSDGSFFLYSKLTVDKSRWQQGNVFSCSVMHEALHYHVTQKDLSLSP
light: not shown
notes: copies: 2 + 2
- Kd (human FcRn [4]): 118 nM

B6: mPM1-mIgG1-mF39 (antibody)
heavy: DVQLQESGPVLVKPSQSLSLTCTVTGYSITSDHAWSWIRQFPGNKLEWMGYISYSGITTYNPSLKSRISITRDTSKNQFFLQLNSVTTGDTSTYYCARSLARTTAMDYWGQGTSVTVSSAKTTPPSVYPLAPGSAAQTNSMVTLGCLVKGYFPEPVTVTWNSGSLSSGVHTFPAVLQSDLYTLSSSVTVPSSTWPSETVTCNVAHPASSTKVDKKIVPRDCGCKPCICTVKEVSKVFIFPPKPKDVLYITLEPKVTCVVVDISKDDPEVQFSWFVDDVEVHTAQTQPREEQFNSTFRSVSELPIMHQDWLNGKEFKCRVNSAAFPAPIEKTISKTKGRPKAPQVYTIPPPKEQMAKDKVSLTCMITDFFPEDITVEWQWNGQPAENYKNTQPIMDTDGSYFVYSKLNVQKSNWEAGNTFTCSVLHEGLKNHHTEKSLSHSPGK
light: DIQMTQTTSSLSASLGDRVTISCRASQDISSYLNWYQQKPDGTIKLLIYYTSRLHSGVPSRFSGSGSGTDYSLTINNLEQEDIATYFCQQGNTLPYTFGGGTKLEIKRADAAPTVSIFPPSSEQLTSGGASVVCFLNNFYPKDINVKWKIDGSERQNGVLNSWTDQDSKDSTYSMSSTLTLTKDEYERHNSYTCEATHKTSTSPIVKSFNRNEC
notes: copies: 2 + 2
- binding result (mouse FcγRI): no binding
- binding result (mouse FcγRIIb): no binding
- binding result (mouse FcγRIII): no binding

B8: GpH7-B3 D270W / GpL16-k0 (antibody, human IgG1)
heavy: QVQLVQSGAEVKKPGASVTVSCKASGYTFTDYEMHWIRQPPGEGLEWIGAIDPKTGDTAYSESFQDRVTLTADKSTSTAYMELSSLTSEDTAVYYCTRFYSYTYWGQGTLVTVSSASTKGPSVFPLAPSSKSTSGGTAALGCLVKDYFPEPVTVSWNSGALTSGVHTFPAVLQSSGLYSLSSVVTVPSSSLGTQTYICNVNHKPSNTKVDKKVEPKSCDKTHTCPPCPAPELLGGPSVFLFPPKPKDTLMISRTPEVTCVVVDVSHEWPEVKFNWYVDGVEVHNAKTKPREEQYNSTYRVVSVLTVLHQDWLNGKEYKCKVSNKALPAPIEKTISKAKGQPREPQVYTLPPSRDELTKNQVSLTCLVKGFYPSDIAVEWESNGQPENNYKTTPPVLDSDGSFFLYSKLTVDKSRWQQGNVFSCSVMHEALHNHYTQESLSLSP
light: DIVMTQSPLSLPVTPGEPASISCQASESLVHSNRNTYLHWYLQKPGQSPQLLIYKVSNRFSGVPDRFSGSGSGTDFTLKISRVEAEDVGVYYCSQNTHVPPTFGQGTKVEIE
notes: B3 variant: anti-glypican-3 IgG1 (constant region B3 = G1d with K439E) with one substitution, EU numbering; also called B3 variant D270W; copies: 2 + 2
- relative binding activity (amount bound / amount bound by GpH7-B3/GpL16-k0 x100) (human FcγRIIb): -2 % of GpH7-B3/GpL16-k0
